Data reported in patent publication US20180326086A1 (UNIVERSITY OF BRITISH COLUMBIA, published 2018).

Experiments:
Assay in all cases: SPR direct binding, antigen immobilized, hybridoma supernatant
[1] = target: T1, cyclo(CGHDSGG)-conjugated-BSA (SEQ ID NO: 2) (bovine, UniProt P02769 25-607, head-to-tail cyclized (amide bond between N-terminus and C-terminus); Cys conjugated to BSA through SMCC)
T1 construct: HDSG is A-beta residues 6-9; C, G and GG are linker residues; also called Cyclic-Peptide; cyclic peptide
T1 sequence (P02769 25-607 limits assumed): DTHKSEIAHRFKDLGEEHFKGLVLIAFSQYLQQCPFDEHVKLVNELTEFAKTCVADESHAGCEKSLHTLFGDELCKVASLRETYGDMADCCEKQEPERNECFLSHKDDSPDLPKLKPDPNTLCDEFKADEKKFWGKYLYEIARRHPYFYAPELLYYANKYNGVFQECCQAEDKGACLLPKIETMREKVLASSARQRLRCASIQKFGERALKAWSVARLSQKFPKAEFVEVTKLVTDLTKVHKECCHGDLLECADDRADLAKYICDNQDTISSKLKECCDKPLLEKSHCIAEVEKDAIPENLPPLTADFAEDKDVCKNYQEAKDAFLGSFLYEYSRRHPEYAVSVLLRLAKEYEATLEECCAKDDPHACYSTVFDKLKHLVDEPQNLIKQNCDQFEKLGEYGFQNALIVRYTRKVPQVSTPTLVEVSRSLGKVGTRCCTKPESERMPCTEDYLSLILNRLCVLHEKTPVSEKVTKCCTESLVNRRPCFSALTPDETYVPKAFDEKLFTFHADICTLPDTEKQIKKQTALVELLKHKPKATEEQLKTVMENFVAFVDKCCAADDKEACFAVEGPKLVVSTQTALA
Procedure: (§1) SPR Analysis All SPR measurements were performed using a Molecular Affinity Screening System (MASS-1) (Sierra Sensors GmbH, Hamburg, Germany), an analytical biosensor that employs high intensity laser light and high speed optical scanning to monitor binding interactions in real time. The primary screening of tissue culture supernatants was performed using an SPR direct binding assay, whereby BSA-conjugated peptides, A-Beta42 Monomer and A-beta42 Oligomer are covalently immobilized on individual flow cells of a High Amine Capacity (HAC) sensorchip (Sierra Sensors GmbH, Hamburg, Germany) and antibodies flowed over the surface. Protein G purified mAbs were analyzed in a secondary screen using an SPR indirect (capture) binding assay, whereby the antibodies were captured on a protein A-derivatized sensorchip (XanTec Bioanalytics GmbH, Duesseldorf, Germany) and A-Beta40 Monomer, A-beta42 Oligomer, soluble brain extracts and cerebrospinal fluid flowed over the surface. The specificity of the antibodies was verified in an SPR direct binding assay by covalently immobilizing A-Beta42 Monomer and A-beta42 Oligomer on individual flow cells of a HAC sensorchip and flowing purified mAbs.
(§2) Clones were retested for their ability to bind cyclic peptide, linear peptide, A-beta 1-42 monomer and A-beta 1-42 oligomers prepared as described above. Binding assays were performed using SPR as described above (Direct binding assays).

A-beta42 monomer = target: T2, A-beta42 monomer (human)
T2 construct: also called Aβ 42 Monomer; A-beta 1-42 monomer
T2 sequence (peptide, as listed by the source): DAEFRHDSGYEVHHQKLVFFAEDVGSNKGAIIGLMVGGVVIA
Procedure: as §1, §2

A-beta42 oligomer = target: T3, A-beta42 oligomer (human)
T3 construct: also called Aβ 42 Oligomer; A-beta 1-42 oligomers
T3 sequence (peptide, as listed by the source): as above
Procedure: as §1, §2

- SPR binding response (RU) [1]: 136 RU
- SPR binding response (RU) (A-beta42 monomer): 56.5 RU
- SPR binding response (RU) (A-beta42 oligomer): 109 RU
B1: 303-25-1B4 (antibody, V domains shown)
VH: QVQLQQPGAELVRPGASVKLSCKASGYTFTSYWMNWVKQRPGQGLEWIGMIDPSDSQTHYNQMFKDKATLTVDKSSSTAYLQLSSLTSEDSAVYYCSRGGYWGQGTTLTVSS
VL: DIQMTQSPSSLSASLGGKVTITCKASQDINNYIAWYQHKPGKGPRQLIYYTSTLQPGIPSRFSGSGSGRDYSFTISDLEPEDIATYYCLQYDNLWTFGGGTKLEIK
notes: Mouse monoclonal raised against cyclo(CGHDSGG)-KLH; also called clone 25
